These results are taken from paper PMC8418782 (Molecular cell, 2021).

For test [1], the target named is T1, human Hsp90α (human, UniProt P07900 1-732). Briefly: SEC-MALS.
In test [2] the target is T1, human Hsp90α. Briefly: SEC-MALS. The source holds these as a separate data set.

B1: FKBP51 N402K (natural protein, human, UniProt Q13451 1-457, looked up)
chain: MTTDEGAKNNEESPTATVAEQGEDITSKKDRGVLKIVKRVGNGEETPMIGDKVYVHYKGKLSNGKKFDSSHDRNEPFVFSLGKGQVIKAWDIGVATMKKGEICHLLCKPEYAYGSAGSLPKIPSNATLFFEIELLDFKGEDLFEDGGIIRRTKRKGEGYSNPNEGATVEIHLEGRCGGRMFDCRDVAFTVGEGEDHDIPIGIDKALEKMQREEQCILYLGPRYGFGEAGKPKFGIEPNAELIYEVTLKSFEKAKESWEMDTKEKLEQAAIVKEKGTVYFKGGKYMQAVIQYGKIVSWLEMEYGLSEKESKASESFLLAAFLNLAMCYLKLREYTKAVECCDKALGLDSANEKGLYRRGEAQLLMNEFESAKGDFEKVLEVNPQNKAARLQISMCQKKAKEHKERDRRIYANMFKKFAEQDAKEEANKAMGKKTSEGVTNEKGTDSQAMEEEKPEGHV
With B1, the binding result in the test with human Hsp90α [1] is “binds”.

B2: FKBP51 ΔH7e (Δ401–457) (domain or fragment, human, UniProt Q13451 1-400, looked up)
chain: MTTDEGAKNNEESPTATVAEQGEDITSKKDRGVLKIVKRVGNGEETPMIGDKVYVHYKGKLSNGKKFDSSHDRNEPFVFSLGKGQVIKAWDIGVATMKKGEICHLLCKPEYAYGSAGSLPKIPSNATLFFEIELLDFKGEDLFEDGGIIRRTKRKGEGYSNPNEGATVEIHLEGRCGGRMFDCRDVAFTVGEGEDHDIPIGIDKALEKMQREEQCILYLGPRYGFGEAGKPKFGIEPNAELIYEVTLKSFEKAKESWEMDTKEKLEQAAIVKEKGTVYFKGGKYMQAVIQYGKIVSWLEMEYGLSEKESKASESFLLAAFLNLAMCYLKLREYTKAVECCDKALGLDSANEKGLYRRGEAQLLMNEFESAKGDFEKVLEVNPQNKAARLQISMCQKKAKE
In the case of B2, in the test with human Hsp90α [1], the binding result is given as “binds”.

B3: human p23 (natural protein)
chain: MQPASAKWYDRRDYVFIEFCVEDSKDVNVNFEKSKLTFSCLGGSDNFKHLNEIDLFHCIDPNDSKHKRTDRSILCCLRKGESGQSWPRLTKERAKLNWLSVDFNNWKDWEDDSDEDMSNFDRFSEMMNNMGGDEDVDLPEVDGADDDSQDSDDEKMPDLE
Regarding B3, the stoichiometry N (as a rule, a count of units in the complex or per binding partner) in the test with human Hsp90α [2] is ~0.5 p23 per Hsp90 chain (Hsp90:FKBP51:p23 2:1:1).
